Numbering of substitutions follows the chain as printed.
Columns and labels:
human IgA (hIgA) = biological target: T1, human IgA (hIgA) (human); experiment: SPR (Biacore T200), antibody captured on ProA/G on CM4 chip, hIgA as analyte, single cycle kinetics, 25 C, in the presence of 100 µM MTA; 100 µM MTA in the antigen buffer
T1 chain: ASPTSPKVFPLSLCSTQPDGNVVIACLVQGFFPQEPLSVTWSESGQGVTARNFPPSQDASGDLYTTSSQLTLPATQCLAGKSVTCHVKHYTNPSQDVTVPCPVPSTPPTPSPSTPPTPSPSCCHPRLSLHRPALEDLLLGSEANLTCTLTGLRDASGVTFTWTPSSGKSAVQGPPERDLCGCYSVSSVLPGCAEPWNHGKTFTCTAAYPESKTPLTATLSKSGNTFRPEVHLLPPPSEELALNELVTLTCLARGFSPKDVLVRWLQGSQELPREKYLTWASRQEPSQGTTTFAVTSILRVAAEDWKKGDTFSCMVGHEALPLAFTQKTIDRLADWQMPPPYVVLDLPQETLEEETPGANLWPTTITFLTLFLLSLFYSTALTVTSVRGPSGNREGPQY

[1] = biological target: T2, human IL-6 receptor (hIL-6R) (human, UniProt P08887 20-357, limits assumed); experiment: SPR (Biacore T200), antibody captured on ProA/G on CM4 chip, hIL-6R as analyte, single cycle kinetics, 25 C, in the presence of 100 µM MTA; 100 µM MTA in the antigen buffer
T2 sequence: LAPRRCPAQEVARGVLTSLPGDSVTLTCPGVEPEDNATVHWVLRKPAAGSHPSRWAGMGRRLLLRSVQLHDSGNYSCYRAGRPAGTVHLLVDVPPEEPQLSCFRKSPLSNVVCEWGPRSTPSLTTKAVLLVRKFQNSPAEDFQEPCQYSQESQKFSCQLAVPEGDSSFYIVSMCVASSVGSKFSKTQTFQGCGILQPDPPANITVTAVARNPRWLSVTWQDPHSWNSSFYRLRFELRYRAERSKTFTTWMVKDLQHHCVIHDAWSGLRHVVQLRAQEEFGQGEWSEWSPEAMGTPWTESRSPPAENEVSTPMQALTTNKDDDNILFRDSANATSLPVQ
Protocol: (§1) The effects of MTA and adenosine on the antigen-antibody reaction between the antibodies purified and produced in Example (4-5) and the target antigens were evaluated using Biacore T200 (GE Healthcare). 20 mM ACES, 150 mM NaCl, 0.05% (w/v) Tween20, pH 7.4 was used as the running buffer, and the measurement was performed at 25° C. Changes in the amount of binding between antigens and antibodies were observed by immobilizing ProA/G on the sensor chip CM4 by amine coupling, immobilizing the antibody on it, and then interacting with various antigens as analytes. The running buffer and a buffer prepared by adding either MTA or adenosine to the running buffer at a final concentration of 100 μM were used to dilute the antigens. In addition, the antigens were prepared in concentration series of several steps, and the dissociation constant KD of each clone was calculated by single cycle kinetics analysis from the sensorgram for each antigen concentration. Biacore T200 Evaluation Software (GE Healthcare) was used to calculate the parameters.

human IL-6 (hIL-6) = human IL-6 (hIL-6) (human); experiment: SPR (Biacore T200), antibody captured on ProA/G on CM4 chip, hIL-6 as analyte, single cycle kinetics, 25 C, in the presence of 100 µM MTA; 100 µM MTA in the antigen buffer
Protocol: as §1

Sequence of human IL-6 (hIL-6) (human) (P05231 30-212): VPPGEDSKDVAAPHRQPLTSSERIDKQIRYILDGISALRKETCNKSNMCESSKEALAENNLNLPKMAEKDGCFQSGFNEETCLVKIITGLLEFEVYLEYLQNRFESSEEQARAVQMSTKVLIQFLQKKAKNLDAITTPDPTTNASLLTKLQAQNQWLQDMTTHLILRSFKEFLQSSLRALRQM

B1: IAS2T001H-F760mnN17/IAS2T001L-KT0 (antibody, human IgG1, kappa, N297A, V domains shown)
VH: QVQLVQSGAEVKKPGASVKVSCKVSDIQDEQYAFGWVRQPPGKGLEWIGIIGATGHVWYPQWVKGRFTISKDNSKNQVVLTMTNMDPVDTATYYCARGHKQHFTNAFDPWGQGTLVTVSS
VL: DIQLTQSPSSLSASVGDRVTITCQSSQSVYKNNYLSWYQQKPGQPPKLLIYDASTLASGVPSRFSGSGSGTDFTLTINSLEAEDAATYYCHGAYLYLGVDNAFGGGTEVVVKR
notes: From the MTA-concentrated S02 library; Target antigen is hIgA
Kd (human IgA (hIgA)): 689 nM

B2: 6RS2T007H-F760mnN17/6RS2T007L-KT0 (antibody, human IgG1, kappa, N297A, V domains shown)
VH: QVQLVQSGAEVKKPGASVKVSCKVSNIVLMQHTYGWVRQPPGKGLEWIGIIGGDGHAWYPRWVKGRFTISKDNSKNQVVLTMTNMDPVDTATYYCARGGKDGFTNAWDPWGQGTLVTVSS
VL: DIQLTQSPSSLSASVGDRVTITCQSSQSVFNNNGLSWYQQKPGQPPKLLIYDASTLASGVPSRFSGSGSGTDFTLTINSLEAEDAATYYCHGSQATQIWWDNAFGGGTEVVVKR
notes: From the MTA-concentrated S02 library (humanized SMB0002 template); also called MTA-dependent anti-hIL-6R antibody
Kd [1]: 1010 nM

B3: 6LS2T001H-F760mnN17/6LS2T001L-KT0 (antibody, human IgG1, kappa, N297A, V domains shown)
VH: QVQLVQSGAEVKKPGASVKVSCKVSDIDAMQYTYGWVRQPPGKGLEWIGIIGEGGEVWYPYWVKGRFTISKDNSKNQVVLTMTNMDPVDTATYYCARGYHEGFVNAWDPWGQGTLVTVSS
VL: B2 VL with Q3K, F30L, N31W, G34Y, A95F, T96E, I98W, W99V, W100F
notes: From the MTA-concentrated S02 library; Target antigen is hIL-6
Kd (human IL-6 (hIL-6)): 126 nM
